The target in one data set is T1, CDK2 (Homo sapiens, UniProt P20248+P24941).
T1 construct: hemagglutinin (HA); made in house; host or cells: Sf9 or High Five insect cells, baculovirus co-infection
The class given is biochemical.

Another data set concerns the target T2, cyclin A/CDK2 (Homo sapiens, UniProt P20248+P24941).
T2 construct: hemagglutinin (HA); made in house; host or cells: Sf9 or High Five insect cells, baculovirus co-infection
The format is biochemical.

Another data set concerns the target T3, pRb (Homo sapiens, UniProt P06400).
T3 construct: purchased QED Bioscience Inc
T3 sequence (P06400 1-928): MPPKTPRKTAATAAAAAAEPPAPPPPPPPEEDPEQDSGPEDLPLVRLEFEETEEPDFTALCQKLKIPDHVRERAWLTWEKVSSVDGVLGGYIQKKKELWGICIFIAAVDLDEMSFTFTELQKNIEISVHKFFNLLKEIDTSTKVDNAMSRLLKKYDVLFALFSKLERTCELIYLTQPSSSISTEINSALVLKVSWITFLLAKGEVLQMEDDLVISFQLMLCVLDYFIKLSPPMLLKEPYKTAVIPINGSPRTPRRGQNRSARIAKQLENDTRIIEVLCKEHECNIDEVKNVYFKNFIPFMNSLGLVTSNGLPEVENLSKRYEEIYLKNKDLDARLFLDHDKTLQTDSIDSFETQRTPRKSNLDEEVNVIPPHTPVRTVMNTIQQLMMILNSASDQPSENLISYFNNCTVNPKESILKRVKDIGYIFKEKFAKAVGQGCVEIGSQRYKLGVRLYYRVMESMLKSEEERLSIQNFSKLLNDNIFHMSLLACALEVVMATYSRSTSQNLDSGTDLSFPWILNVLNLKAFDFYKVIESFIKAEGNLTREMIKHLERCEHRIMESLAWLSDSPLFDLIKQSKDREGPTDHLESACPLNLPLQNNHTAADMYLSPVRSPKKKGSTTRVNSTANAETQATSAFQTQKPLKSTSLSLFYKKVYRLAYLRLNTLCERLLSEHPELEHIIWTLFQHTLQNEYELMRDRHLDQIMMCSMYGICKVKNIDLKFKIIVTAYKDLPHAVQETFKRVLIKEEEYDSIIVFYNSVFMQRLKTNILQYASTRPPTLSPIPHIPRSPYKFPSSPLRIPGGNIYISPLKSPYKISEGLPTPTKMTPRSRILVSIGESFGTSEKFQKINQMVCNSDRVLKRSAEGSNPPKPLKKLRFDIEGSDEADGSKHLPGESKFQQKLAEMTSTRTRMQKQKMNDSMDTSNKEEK
Put plainly: E7 binding assay (GST-E7 on glutathione-agarose beads), pRb. Here is the method: For HPV31E7, the amplification product was subcloned into pGEX-4T-3 previously digested with BamHI, while HPV6b and HPV16 E7 amplification products were subcloned into pGEX-4T-3 previously digested with BamHI and XhoI. Proper orientation was determined using restriction mapping, sequence analysis was carried out using Perkin-Elmer ABI-Prism® technology, and the expression constructs were individually transfected into a JM 109 strain of E. coli. Bacteria in log-growth phase were harvested by centrifugation after a four hour induction with 0.5 mM IPTG at 30° C. […] After extensive washing with PBS, the GST-E7-coupled beads were stored at 4° C. until use. Protein levels were measured using a BioRad protein assay kit, and purified protein preparations were examined by SDS-PAGE followed by Coomassie blue staining and Western blotting. […]
GST-16E7 or GST-31E7 fusion proteins bound to glutathione-agarose beads were incubated with either purified pRb (QED Bioscience Inc.), His-p21, His-p21N, His-p21C, His-p27, His-p27N, His-p27C, or HEK293 cell lysate at 4° C. for two hours in binding buffer containing 20 mM HEPES, pH 7.4, 10 mM KCl, 1 mM EDTA, 1 mM EGTA, 140 mM NaCl, 13% glycerol, 1 mM DTT, and 1× protease inhibitor tablet (Boehringer Mannheim). […] Eluted proteins were separated using 15% SDS-PAGE and the proteins were analyzed by Coomassie blue staining and Western blotting.

Where no end group is shown, it is not given here.

T2 sequence (P20248 whole entry, one chain of several): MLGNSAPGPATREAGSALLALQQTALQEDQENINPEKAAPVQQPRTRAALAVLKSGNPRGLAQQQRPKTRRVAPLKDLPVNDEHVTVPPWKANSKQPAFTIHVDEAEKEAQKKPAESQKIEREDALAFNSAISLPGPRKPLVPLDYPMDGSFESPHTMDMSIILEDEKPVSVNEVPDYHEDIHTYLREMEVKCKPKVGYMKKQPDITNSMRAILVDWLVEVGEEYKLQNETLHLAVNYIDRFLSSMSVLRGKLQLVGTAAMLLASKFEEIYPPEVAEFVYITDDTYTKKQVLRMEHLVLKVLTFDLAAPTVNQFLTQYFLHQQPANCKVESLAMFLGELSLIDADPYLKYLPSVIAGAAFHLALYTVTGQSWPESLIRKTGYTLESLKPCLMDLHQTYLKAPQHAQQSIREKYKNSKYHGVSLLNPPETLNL
T1 sequence (P20248 whole entry, one chain of several): as above

As for “GST-HPV16-E7(39-98): HPV16 E7 amino terminal deletion, residues 39-98, GST fusion (DGPAGQAEPDRAHYNIVTFCCKCDSTLRLCVQSTHVDIRTLEDLLMGTLGIVCPICSQKP; cysteine pairing not given here; also: GST fusion partner left off)”, the “induced kinase activity, level relative to that by full length E7” value with CDK2 amounted to 18%. Also, in the data set with cyclin A/CDK2, the “activation of cyclinA/CDK2, % of the activation activity of full length GST-HPV 16 E7” value is recorded as 28.6% and the “activation potential, repeat experiment” value is given as 18%.

On to “HPV E7(1-48): HPV16 E7 truncation, residues 1-48, GST fusion (MHGDTPTLHEYMLDLQPETTDLYCYEQLNDSSEEEDEIDGPAGQAEPD; also: GST fusion partner left off)”, for which, in the data set with CDK2, the “relative kinase activity compared to activity in the presence of full length E7” value (“relative kinase activity … of full length E7” for short) is 73.25%.

“GST: glutathione-S-transferase alone, control for the fusion proteins [reference compound]”: in the data set with cyclin A/CDK2, the “effect on cyclin A/CDK2 histone H1 kinase activity” value was “no effect”.

As to “GST-E7 (20-48): internal HPV16 E7 region, residues 20-48, GST fusion (TDLYCYEQLNDSSEEEDEIDGPAGQAEPD; also: GST fusion partner left off)”, the “induced kinase activity, level relative to that by full length E7” value in the data set with CDK2 came out at 33%.

Turning to “GST-16E7(1-27): HPV16 E7 truncation, residues 1-27, GST fusion (MHGDTPTLHEYMLDLQPETTDLYCYEQ; also: GST fusion partner left off)”, in the data set with CDK2, the “relative kinase activity … of full length E7” value is given as 28.64% and the “relative kinase activity compared to full length E7, repeat experiment” value turned out to be 52%.

Consider “GST-16E7 (16-38): internal HPV16 E7 region, residues 16-38, GST fusion”, for which the “induced kinase activity, level relative to that by full length E7” value in the data set with CDK2 stood at 53%.

Take “HPV E7(1-15): HPV16 E7 truncation, residues 1-15, GST fusion (MHGDTPTLHEYMLDL; also: GST fusion partner left off)”: in the data set with CDK2, the “relative kinase activity … of full length E7” value is given as 15%.

In the case of “HPV E7(1-38): HPV16 E7 truncation, residues 1-38, GST fusion (MHGDTPTLHEYMLDLQPETTDLYCYEQLNDSSEEEDEI; also: GST fusion partner left off)”, in the data set with CDK2, the “relative kinase activity … of full length E7” value was “approximately 72%”.

B1: GST-31E7: HPV31 E7 protein expressed as a GST fusion protein (protein)
chain: MRGETPTLQDYVLDLQPEATDLHCYEQLPDSSDEEDVIDSPAGQAEPDTSNYNIVTFCCQCKSTLRLCVQSTQVDIRILQELLMGSFGIVCPNCSTRL
modifications: left off: a dimerising Fc or GST
Regarding B1, the “binding to pRb in HEK 293 cell lysate” value with pRb (HEK 293 cell lysate) is recorded as “bound”. Also, in the data set with pRb (purified pRb, SDS-PAGE, Coomassie and Western blot), the “binding to purified pRb” value is listed as “bound”. The “effect on cyclin A/CDK2 histone H1 kinase activity” value with cyclin A/CDK2 was “significant effect”.

B2: Δ12; Δ24, 26: E7 with combined point mutations Δ12 and Δ24, 26 (protein, UniProt P03129 1-98, looked up, variant M12* C24* E26*)
Protein E7: MHGDTPTLHEYLDLQPETTDLYYQLNDSSEEEDEIDGPAGQAEPDRAHYNIVTFCCKCDSTLRLCVQSTHVDIRTLEDLLMGTLGIVCPICSQKP
modifications: GST fusion
As for B2, in the data set with CDK2, the “% Control Activation Exp. 1” value is 85.2% and the “% Control Activation Exp. 2” value is given as 93.5%.

B3: HPV6b: low risk-derived E7 from HPV6b, expressed as a GST fusion protein (protein)
chain: MHGRHVTLKDIVLDLQPPDPVGLHCYEQLVDSSEDEVDEVDGQDSQPLKQHFQIVTCCCGCDSNVRLVVQCTETDIREVQQLLLGTLNIVCPICAPKT
modifications: left off: a dimerising Fc or GST
For B3, the “activation of CDK2 histone kinase activity” value with CDK2 was 15.8 fold.

B4: HPV E7(1-69): HPV16 E7 truncation, residues 1-69, GST fusion (protein)
chain: MHGDTPTLHEYMLDLQPETTDLYCYEQLNDSSEEEDEIDGPAGQAEPDRAHYNIVTFCCKCDSTLRLCV
modifications: also: GST fusion partner left off
notes: HPV16 E7 truncation, residues 1-69, GST fusion
Regarding B4, in the data set with CDK2, the “relative kinase activity … of full length E7” value worked out at 82.45%.

B5: Δ12; Δ24, 26; Δ31, 32: E7 with combined point mutations Δ12, Δ24, 26 and Δ31, 32 (protein, UniProt P03129 1-98, looked up, variant M12* C24* E26* S31* S32*)
Protein E7: MHGDTPTLHEYLDLQPETTDLYYQLNDEEEDEIDGPAGQAEPDRAHYNIVTFCCKCDSTLRLCVQSTHVDIRTLEDLLMGTLGIVCPICSQKP
modifications: GST fusion
Regarding B5, the “% Control Activation Exp. 2” value with CDK2 stood at 83.1%.

B6: GST-HPV16-E7(9-98): GST-E7 construct encoding HPV16 amino acids 9-98 (protein)
chain: HEYMLDLQPETTDLYCYEQLNDSSEEEDEIDGPAGQAEPDRAHYNIVTFCCKCDSTLRLCVQSTHVDIRTLEDLLMGTLGIVCPICSQKP
modifications: left off: a dimerising Fc or GST
Take B6: the “activation of cyclinA/CDK2, % of the activation activity of full length GST-HPV 16 E7” value with cyclin A/CDK2 was found to be 64%.

B7: GST-HPV16-E7(16-98): GST-E7 construct encoding HPV16 amino acids 16-98 (protein)
chain: QPETTDLYCYEQLNDSSEEEDEIDGPAGQAEPDRAHYNIVTFCCKCDSTLRLCVQSTHVDIRTLEDLLMGTLGIVCPICSQKP
modifications: left off: a dimerising Fc or GST
As to B7, in the data set with cyclin A/CDK2, the “activation of cyclinA/CDK2, % of the activation activity of full length GST-HPV 16 E7” value was determined as 53%.

B8: HPV E7(1-87): HPV16 E7 truncation, residues 1-87, GST fusion (protein)
chain: MHGDTPTLHEYMLDLQPETTDLYCYEQLNDSSEEEDEIDGPAGQAEPDRAHYNIVTFCCKCDSTLRLCVQSTHVDIRTLEDLLMGTL
modifications: left off: a dimerising Fc or GST
notes: HPV16 E7 truncation, residues 1-87, GST fusion
For the molecule B8, the “relative kinase activity … of full length E7” value with CDK2 is on record as 76.67%.

The values above are taken from patent US6641994B2, “Methods of identifying anti-viral agents” (Pharmacia & Upjohn Company, priority 1999, dated 2003).
